Seven molecules from patent publication US6747136 (KAROLINA INNOVATIONS, dated 2004) can be followed below.

“And” between values parts separate entries of the source, which are not always exact repeats. Equal values may be shown once. Some results are limits rather than exact numbers.

The target of experiment [1] is T1, recombinant conformational HCV E2 antigen (HCV genotype 1a) (hepatitis C virus, HCV1 (genotype 1a), UniProt P26664 383-715).
Experiment [2] has as its target T1, recombinant conformational HCV E2 …. The experiment can be described thus: inhibition ELISA: coated E2 1a, soluble E2 as inhibitor.
For experiment [3] the target is unchanged. This is another data set of the same source.
Experiment [4] has as its target T2, bovine serum albumin (bovine, UniProt P02769 25-607).
T2 construct: also called BSA
The experiment can be described thus: ELISA, coated BSA 5 ug/ml.

For experiment [5], the target named is recombinant HCV E1/E2 complex antigen (hepatitis C virus, HCV1, UniProt P26664 192-383; P26664 384-746). Description: ELISA, […] (100 ug/ml) […].
Experiment [6] concerns the target T2, bovine serum albumin. Description: ELISA, […] (100 ug/ml) […].
Experiment [7] addresses T1, recombinant conformational HCV E2 …. The experiment can be described thus: ELISA, […] (100 ug/ml) […].
In experiment [8] the target is T3, HCV E2 antigen (HCV genotype 1b) (hepatitis C virus genotype 1b).
T3 construct: also called E2 1b; E2 antigen of genotype 1b
The experiment can be described thus: NOB assay: Fab pre-mixed with E2 1b, E2 binding to MOLT-4 cells by flow cytometry; 50% reduction titer, Exp. II.

T2 sequence (P02769 25-607 limits assumed): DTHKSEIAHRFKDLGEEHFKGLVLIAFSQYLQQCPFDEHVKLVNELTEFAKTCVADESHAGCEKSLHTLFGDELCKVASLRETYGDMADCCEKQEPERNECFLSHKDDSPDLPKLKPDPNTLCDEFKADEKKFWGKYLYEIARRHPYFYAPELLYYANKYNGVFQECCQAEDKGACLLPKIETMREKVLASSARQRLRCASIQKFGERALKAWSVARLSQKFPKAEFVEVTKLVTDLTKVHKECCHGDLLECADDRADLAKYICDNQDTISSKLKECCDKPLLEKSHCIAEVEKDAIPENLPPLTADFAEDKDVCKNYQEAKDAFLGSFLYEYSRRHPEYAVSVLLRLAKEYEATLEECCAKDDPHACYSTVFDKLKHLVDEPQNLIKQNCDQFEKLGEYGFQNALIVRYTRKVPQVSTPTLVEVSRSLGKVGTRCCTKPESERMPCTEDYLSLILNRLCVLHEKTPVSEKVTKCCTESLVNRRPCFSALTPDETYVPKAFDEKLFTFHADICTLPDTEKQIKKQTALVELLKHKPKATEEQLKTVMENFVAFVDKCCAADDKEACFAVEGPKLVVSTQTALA
T1 sequence (P26664 383-715): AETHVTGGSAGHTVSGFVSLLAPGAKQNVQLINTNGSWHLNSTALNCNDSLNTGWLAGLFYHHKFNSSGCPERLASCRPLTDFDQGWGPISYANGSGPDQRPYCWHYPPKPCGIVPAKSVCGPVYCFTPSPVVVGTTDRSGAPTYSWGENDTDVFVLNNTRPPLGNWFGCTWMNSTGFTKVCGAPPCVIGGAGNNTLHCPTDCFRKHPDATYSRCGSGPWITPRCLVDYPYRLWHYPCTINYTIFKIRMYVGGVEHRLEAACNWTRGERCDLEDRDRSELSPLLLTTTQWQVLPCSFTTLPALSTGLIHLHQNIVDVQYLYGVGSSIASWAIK
Chain of recombinant HCV E1/E2 complex antigen (P26664 192-383 limits assumed, chain 1 of 2): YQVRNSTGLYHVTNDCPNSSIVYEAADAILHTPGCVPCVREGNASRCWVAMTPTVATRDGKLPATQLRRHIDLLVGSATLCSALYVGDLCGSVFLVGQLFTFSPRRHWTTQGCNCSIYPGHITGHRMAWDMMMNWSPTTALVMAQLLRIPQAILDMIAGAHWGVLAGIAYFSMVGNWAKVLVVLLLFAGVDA
Chain of recombinant HCV E1/E2 complex antigen (P26664 384-746 limits assumed, chain 2 of 2): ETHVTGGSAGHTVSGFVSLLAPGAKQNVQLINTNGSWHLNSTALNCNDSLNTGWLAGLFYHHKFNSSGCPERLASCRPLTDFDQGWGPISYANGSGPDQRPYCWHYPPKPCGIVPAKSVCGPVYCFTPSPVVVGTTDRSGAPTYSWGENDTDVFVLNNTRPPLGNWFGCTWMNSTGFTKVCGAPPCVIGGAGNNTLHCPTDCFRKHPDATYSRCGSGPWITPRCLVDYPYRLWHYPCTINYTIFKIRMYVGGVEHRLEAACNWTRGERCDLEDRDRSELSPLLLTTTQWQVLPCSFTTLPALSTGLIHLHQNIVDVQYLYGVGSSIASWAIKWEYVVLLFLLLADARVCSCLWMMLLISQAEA

B1: Fab molecule clone A12 (Fab, V domains shown)
VH: EVQLLESGSEVKKPGSSVKVSCRASGGSFRSYNFNWVRQAPGQGLEWMGGIIPMFGTANYAQKFQGRVTITADESTATGYMELSSLRSEDTAVYYCAMPYPKHCSRGSCWGWFDPWGQGTLVTVSS
VL: AELTQSPGTLSLSPGERATLSCRASQSLSSKYLAWYQQKPGQAPRLFIYDASSRATGIPDRFSGSGSGTDFTLSISRLEPEDFAVYYCQQYGTPRTFGQGTKVEIK
With B1, the IC50 in experiment [1] stood at 0.1 µg/mL. For the same molecule, in experiment [2], the Ka was around 1e+07 M⁻¹. In experiment [3], the Kd is around 100 nM.

B2: Fab molecule clone L3 (Fab, V domains shown)
VH: EVQLLESGGGVVQPGRSLRLSCAASGFTFKTYGMHWVRQAPGKGLEWVAGISFDGSNQYYADSVKGRFIVSRDNSRDTVFLQMSSLRLEDTAVYYCATEGSPFGSIKGRYYLENWGQGTLVTVSS
VL: AELTQSPATLSVSPGERASLSCRASQSVGNNLAWYQQKPGQAPRLLIYGGNTRATGTPDRFSGSGSGTEFTLTISSLQSEDFAVYFCQHYSTWPLTFGGGTKVEFK
For the molecule B2, the IC50 in experiment [1] stood at 0.02 µg/mL. Moreover, in experiment [4], the binding result is “no binding”. In experiment [2], the Ka is around 4e+07 M⁻¹. In addition, in experiment [3], the Kd is around 28 nM. The “OD405 nm (ELISA reactivity)” value in experiment [5] is 2.46 OD405 nm; in experiment [6], 0.089 OD405 nm; in experiment [7], 1.7 OD405 nm.

B3: Fab molecule clone 1:5 (Fab, V domains shown)
VH: VQLLEQSGAEVRKPGSSVKVSCKASGGTFSGHVITWVRQAPGQGLEWMGESIPIFGSANYAQNYAQKFRDRVSIIADESTSTSFIELSNLRSDDTAVYYCARDPPRYCSAGRCYPGFFQQWGQGTLVTVSS
VL: AELTQSPGTLSLSPGERATLSCRASQSVSSNYLAWYQQRPGQAPRLLIYGASSRATGIPDRFSGSGSGTDFTLTISRLEPEDFAVYYCQLYGNSRWTFGQGTKVEIK
For the molecule B3, the half-inhibitory concentration (IC50) in experiment [1] is 1.5 µg/mL and 2.5 µg/mL. In experiment [4], the binding result is recorded as “no binding”. Besides, in experiment [2], the Ka is below 1e+07 M⁻¹. For the same molecule, the Kd in experiment [3] is above 100 nM.

B4: Fab molecule clone 1:11 (Fab, V domains shown)
VH: VQLLEQSGAEVKKPGSSVKVSCKASGGTFSGHVISWVRQAPGQGLEWMGGSISFFGTSNSAQKFQGRVSITADESASTAYMELSSLRSEDTAIYYCAKDPPRFCSGGNCYPGFFQQWGQGTLVTVSS
VL: AELTQSPGTLSLSPGERATLSCGASQSVRSNYLAWYQQKPGQAPRLLIYGVSSRATGIPDRFSGSGSGTDFTLTISRLEPEDFAVYYCQQYGSSPRTFGQGTKLEIK
On to B4, for which the Ka in experiment [2] is around 4e+07 M⁻¹. Also, the dissociation constant (Kd) in experiment [3] is around 28 nM.

B5: Fab molecule clone 1:7 (Fab, V domains shown)
VH: VQLLEQSGAEVKKPGSSVKVSCQVFGDTFSRYTIQWLRQAPGQGPEWMGNIIPVYNTPNYAQKFQGRLSITADDSTSTAYMELSSLRSEDTAVYFCARVVIPNAIRHTMGYYFDYWGQGTLVTVSS
VL: AELTQSPATLSLSPGERATLSCRASQSVNKYLAWYQQKPGQAPRLLIYDASNRATGIPARFSGSGSGTDFTLTISNLEPEDFAVYYCQQRSDWVTFGGGTKVEIK
On to B5, for which the IC50 in experiment [1] was 0.02 µg/mL and 0.01 µg/mL. Also, the binding result in experiment [4] is given as “no binding”. In experiment [2], the Ka is around 2e+08 M⁻¹. The Kd in experiment [3] was around 6 nM. For the same molecule, the “OD405 nm (ELISA reactivity)” value in experiment [5] was above 3 OD405 nm; in experiment [6], 0.006 OD405 nm; in experiment [7] it was above 3 OD405 nm.

B6: Fab molecule clone L1 (Fab, V domains shown)
VH: EVQLLESGGGVVQPGRSLRLSCAASGFTFSAYGMHWVRQAPGKGLEWVAGIWFDGSNQYYSDSVKGRFTVSRDNSRNTLFLQMNSLRPEDTAVYYCATEVLFGSIKGRYYLENWGQGTLVTVSS
VL: AELTQSPGTLSLSVGERATLSCRASQNIYSGYLGWYQQKPGQPPRLLIYGASNRATGIPDRFSGSGSGTDFTLTISRLESEDFAVYYCQQYGSPPYTFGQGTKVEIK
notes: also called Ll
As to B6, the IC50 in experiment [1] is 0.02 µg/mL and 0.03 µg/mL; in experiment [8] it was 0.03 µg/mL. Further, the Ka in experiment [2] is around 4e+07 M⁻¹. For the same molecule, the Kd in experiment [3] is around 28 nM.

B7: Fab molecule clone A8 (Fab, V domains shown)
VH: EVQLLESGPGLVKPSGTLSLTCTVSGGSIRSSHWWSWVRQPPGKGLEWIGEVFFSGSTIYNPSLNDRVFMSVDKSKDQVSLRLSSVTAADTAVYYCARSPIKMNQGRMMLDAFDIWGQGTLVIVSS
VL: AELTQSPSSLSAFVGDRVTITCRASQSISRNLNWYQQKPGTAPKVLIYAASSLQSGVPSRFSGSGSGTDFTLTITSLQPEDFATYYCQQSYTTPRTFGQGTKVEVK
Consider B7, for which, in experiment [1], the IC50 is 0.001 µg/mL. The Ka in experiment [2] is around 2e+08 M⁻¹. Besides, the Kd in experiment [3] is around 6 nM.
